From paper PMC12660843, “Using phage display for rational engineering of a higher-affinity humanized 3’ phosphohistidine-specific antibody” (Communications Chemistry, 2025) come the findings set out here.

Substitutions are numbered along the chain they refer to. Numbers in names are those of the source. *1 amine or outer side, *2 acyl side, *3 side chain or, on linkers, in order; H or OH if unused. Where no end group is shown, it is not given here. [ ]: non-standard residue; d: D form. The star is where a group is joined. 3‑pTza = 3-phosphotriazolyl alanine (also given as 3-phosphoryl-triazolylalanine); 3‑pHis = 3-phosphohistidine, O=C([C@H](Cc1cn(P(=O)(O)O)cn1)N[*:1])[*:2]; Biotin = O=C1N[C@H]2[C@H](CS[C@H]2CCCCC(=O)*)N1; Ahx = NCCCCCC(=O)O

In assay [1] the target is 3-pTza peptide (Biotin-AminocaproicAcid-A.G.A.G.3-pTza.A.G.A.G). Put plainly: BLI; Octet RED96e; biotinylated peptides captured on streptavidin biosensors at 20 nM; Fab in solution, 20-200 nM; 1x HBS-T, 1% BSA. A general note: BLI is a label-free optical method that tracks binding on a fibre tip over time.
Assay [2] has the same target. The description is as above. The source holds these as a separate data set.
In assay [3] the target is T1, 3-pHis peptide (Biotin-AminocaproicAcid-A.G.A.G.H.A.G.A.G phosphorylated by phosphoramidate).
T1 construct: His-peptide, phosphorylated on His5; the phosphoramidate reaction gives a mixture of non-phosphorylated, 1-pHis, 3-pHis and di-pHis peptide; also called Biotinylated ACLYana-3-pHis; ACLYana-pHis; source: synthetic peptide, phosphorylated with potassium phosphoramidate; not shown: biotin, N-terminal, kept
T1 peptide: {Biotin-Ahx}-AGAG[3‑pHis]AGAG
The description is as above.

Assay [4] concerns the target T1, 3-pHis peptide …. The assay can be described thus: BLI; biotinylated peptide captured on streptavidin biosensors at 20 nM; IgG in solution at 20-200 nM; Octet HTX; 1x HBS-T, 1% BSA. The following applies: both partners purified.
Assay [5] concerns the target T2, 3-pTza peptide (Biotin-AminocaproicAcid-A.G.A.G.3-pTza.A.G.A.G).
T2 chain: {Biotin-Ahx}-AGAG[3‑pTza]AGAG
The assay is described as above. The following applies: both partners purified.

The target of assay [6] is 3-pTza peptide (Biotin-AminocaproicAcid-A.G.A.G.3-pTza.A.G.A.G). The assay can be described thus: BLI; Octet HTX; biotinylated peptides captured on streptavidin biosensors at 20 nM; IgG in solution, 20-200 nM; 1x HBS-T, 1% BSA.
Assay [7] has as its target T1, 3-pHis peptide …. The assay is described as above.
Assay [8] has as its target T3, 3-pTza peptide (Biotin-AminocaproicAcid-A.G.A.G.3-pTza.A.G.A.G) (synthetic construct).
T3 chain: {Biotin-Ahx}-AGAG[3‑pTza]AGAG
Put plainly: BLI.

Assay [9] deals with T4, 3-pHis form of the a-subunit of SCS (30 kDa) (Homo sapiens (HEK293T, endogenous), UniProt P53597, 3-phosphohistidine (site not stated)).
T4 construct: alpha subunit of SCS (succinyl-CoA synthetase), 30 kDa band on the immunoblot; source: endogenous, HEK293T lysate
Put plainly: immunoblot; HEK293T whole cell lysate, 30 µg, alkaline 12% SDS-PAGE and alkaline blotting at 4 °C; 0.5 µg/mL IgG as primary antibody, 1 h at room temperature; HRP secondary antibody. To be noted: one partner purified. In general terms: Immunoblotting shows a protein as a band on a membrane.

The target in assay [10] is T5, 3-pHis form of ACLY (120 kDa) (Homo sapiens (HEK293T, endogenous), UniProt P53396, 3-phosphohistidine (site not stated)).
T5 construct: ACLY (ATP-citrate lyase), 120 kDa band on the immunoblot; source: endogenous, HEK293T lysate
The assay is described as above. To be noted: one partner purified.

T5 sequence (P53396 whole entry): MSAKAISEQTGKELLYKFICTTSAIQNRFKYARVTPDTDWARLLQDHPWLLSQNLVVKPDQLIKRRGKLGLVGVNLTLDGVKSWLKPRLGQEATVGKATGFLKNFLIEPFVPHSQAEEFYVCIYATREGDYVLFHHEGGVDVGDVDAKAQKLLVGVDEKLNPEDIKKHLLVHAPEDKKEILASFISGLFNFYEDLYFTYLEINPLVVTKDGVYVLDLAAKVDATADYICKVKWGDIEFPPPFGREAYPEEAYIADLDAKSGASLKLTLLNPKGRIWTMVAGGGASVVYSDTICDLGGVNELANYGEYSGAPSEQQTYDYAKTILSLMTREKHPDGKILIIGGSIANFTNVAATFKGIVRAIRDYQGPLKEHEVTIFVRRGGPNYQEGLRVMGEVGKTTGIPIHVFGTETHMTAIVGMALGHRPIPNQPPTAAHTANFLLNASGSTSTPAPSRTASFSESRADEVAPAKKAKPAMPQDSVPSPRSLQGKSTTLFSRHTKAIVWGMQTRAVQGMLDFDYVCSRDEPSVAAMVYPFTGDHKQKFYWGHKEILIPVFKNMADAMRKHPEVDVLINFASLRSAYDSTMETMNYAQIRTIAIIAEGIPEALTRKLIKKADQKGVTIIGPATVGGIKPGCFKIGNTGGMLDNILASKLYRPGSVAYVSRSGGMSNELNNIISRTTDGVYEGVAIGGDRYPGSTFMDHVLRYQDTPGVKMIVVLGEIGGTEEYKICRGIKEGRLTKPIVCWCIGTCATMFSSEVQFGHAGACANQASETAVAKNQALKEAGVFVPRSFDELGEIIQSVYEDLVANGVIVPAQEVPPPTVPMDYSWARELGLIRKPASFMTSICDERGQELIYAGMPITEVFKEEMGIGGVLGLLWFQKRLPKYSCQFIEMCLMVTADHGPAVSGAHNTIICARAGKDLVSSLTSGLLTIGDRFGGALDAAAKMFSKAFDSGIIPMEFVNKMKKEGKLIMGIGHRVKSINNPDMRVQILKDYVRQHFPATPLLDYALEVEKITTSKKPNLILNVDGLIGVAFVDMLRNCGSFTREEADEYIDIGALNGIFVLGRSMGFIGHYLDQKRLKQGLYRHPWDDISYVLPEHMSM
T4 sequence (P53597 41-346): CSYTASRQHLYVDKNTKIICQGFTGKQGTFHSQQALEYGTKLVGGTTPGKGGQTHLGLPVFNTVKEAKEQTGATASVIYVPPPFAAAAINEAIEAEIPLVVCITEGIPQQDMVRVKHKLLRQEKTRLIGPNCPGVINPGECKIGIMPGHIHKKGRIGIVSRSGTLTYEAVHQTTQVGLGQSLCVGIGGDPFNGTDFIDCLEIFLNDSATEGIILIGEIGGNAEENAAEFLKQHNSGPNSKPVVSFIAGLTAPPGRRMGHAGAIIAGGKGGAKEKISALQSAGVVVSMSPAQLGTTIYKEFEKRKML

B1: hSC44 Fab (Fab, V domains shown)
VH: EVQLVESGGGLVQPGGSLRLSCTASGFSIDSYGFSWVRQAPGKGLEHIGYLTAGGRAFYASWAKSRSTITRNTNENTVTLKMNSLRAEDTAVYYCAKLGSGNPVAIWGQGTLVTVSS
VL: DIQMTQSPSSLSASVGDRVTITCRASQSVWRNKNVAWYQQKPGKAPKRLIYAIASLYSGVPSRFSGSGSGTDFTLTISSLQPEDFATYYCVGHYGSENDAYYAFGQGTKVEIK
The Kd is a measure of binding affinity in units of concentration. Low readings indicate a tighter complex, high ones a looser complex. A word on the koff: it is the rate constant with which the complex falls apart. A low value points to a long-lived complex. As a reminder, the kon is the rate constant with which the complex forms. A high value points to faster complex formation. On to B1, for which the Kd worked out at 1.62 nM in assay [1], 1.5 nM in assay [2] and 40.5 nM in [3]. In addition, the off-rate (koff) was found to be 8.16e-05 s⁻¹ in assay [1] and 0.00235 s⁻¹ in assay [3]. Moreover, the on-rate constant (kon) was 50600 M⁻¹ s⁻¹ in assay [1] and 57900 M⁻¹ s⁻¹ in assay [3].

B2: hSC44.20 IgG (antibody, V domains shown)
VH: B1 VH with S100T, N102S, P103R, V104F
VL: B1 VL with M4L
notes: human IgG1, kappa light chain
For the molecule B2, in assay [4], the Kd was 21 nM. In [5], this molecule registered an off-rate constant (koff) of under 1e-07 s⁻¹ and an association rate constant (kon) of 257000 M⁻¹ s⁻¹.

B3: hSC44.20.N32Y^L IgG (antibody, V domains shown)
VH: B1 VH with S100T, N102S, P103R, V104F
VL: B1 VL with N34Y
With B3, the dissociation constant Kd was under 0.001 nM in assay [6] and 9.5 nM in assay [7].

B4: hSC44 IgG (antibody, V domains shown)
VH: B1 VH
VL: B1 VL
In the case of B4, the koff in assay [8] was found to be 9.3e-05 s⁻¹. Also, in assay [6], the equilibrium dissociation constant (Kd) worked out at 1.2 nM.

B5: hSC44.20 IgG (antibody, V domains shown)
VH: B1 VH with S100T, N102S, P103R, V104F
VL: B1 VL
notes: as the heavy chain of m2 with the stated CDR-H3 changes (Kabat numbering); as the light chain of m1; source: Expi293, transfected, purified (CaptoL, SEC); copies: 2 + 2
Turning to B5, the Kd in assay [6] is under 0.001 nM. Also, the binding result in [9] and in [10] was “binds” in each case.

B6: hSC44.20.N32F^L IgG (antibody, V domains shown)
VH: B1 VH with S100T, N102S, P103R, V104F
VL: B1 VL with N34F
notes: as the heavy chain of m4 (heavy chain of m2 with the stated CDR-H3 changes, Kabat numbering); as the light chain of m1 with N32F in CDR-L1 (Kabat numbering); source: Expi293, transfected, purified (CaptoL, SEC); copies: 2 + 2
Take B6: the Kd in assay [6] was under 1.54 nM; in [7] it was 1.6 nM. Also, the binding result in [9] and in [10] was “binds” in each case.
